One may read the IC50 as the concentration that gives 50% inhibition.

This is an account of results in patent US20210261685A1 (Alector, published 2021).

The target of assay [1] is T1, human MerTK endogenously expressed on cells (SK-MEL-5 cells; human macrophages) (human, UniProt Q12866 21-999).
T1 sequence: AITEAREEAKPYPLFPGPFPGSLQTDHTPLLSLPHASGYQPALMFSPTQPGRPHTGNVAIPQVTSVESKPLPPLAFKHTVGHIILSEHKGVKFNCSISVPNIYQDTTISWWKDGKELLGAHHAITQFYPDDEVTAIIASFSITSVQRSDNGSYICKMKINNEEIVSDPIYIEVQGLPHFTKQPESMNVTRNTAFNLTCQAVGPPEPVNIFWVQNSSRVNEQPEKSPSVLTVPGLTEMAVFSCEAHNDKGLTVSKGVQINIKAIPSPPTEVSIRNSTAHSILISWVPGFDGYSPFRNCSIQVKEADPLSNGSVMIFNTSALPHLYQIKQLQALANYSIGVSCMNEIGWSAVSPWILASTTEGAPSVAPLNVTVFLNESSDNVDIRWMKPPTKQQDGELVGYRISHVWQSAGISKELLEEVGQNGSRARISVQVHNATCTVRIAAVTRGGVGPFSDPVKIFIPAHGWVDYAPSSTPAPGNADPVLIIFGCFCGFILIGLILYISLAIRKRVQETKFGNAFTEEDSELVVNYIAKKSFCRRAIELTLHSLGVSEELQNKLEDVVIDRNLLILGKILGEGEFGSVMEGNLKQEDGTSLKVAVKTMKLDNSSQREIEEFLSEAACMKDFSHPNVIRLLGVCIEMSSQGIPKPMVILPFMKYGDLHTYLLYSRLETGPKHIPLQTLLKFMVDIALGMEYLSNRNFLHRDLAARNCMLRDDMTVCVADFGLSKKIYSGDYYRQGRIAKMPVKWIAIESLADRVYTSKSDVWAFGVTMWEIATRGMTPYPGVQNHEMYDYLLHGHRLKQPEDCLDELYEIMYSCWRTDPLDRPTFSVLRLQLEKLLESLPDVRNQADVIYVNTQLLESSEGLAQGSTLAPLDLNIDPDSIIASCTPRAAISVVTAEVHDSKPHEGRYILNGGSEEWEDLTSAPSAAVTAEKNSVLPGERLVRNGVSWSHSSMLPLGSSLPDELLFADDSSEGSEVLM
Nature of the assay: cell-based or functional assay.

For assay [2], the target named is T2, cyno MerTK extracellular domain (ECD), recombinant (cynomolgus monkey, UniProt Q12866 21-505 (human entry)).
T2 construct: also called cynomolgus MerTK; not shown: polyHis tag or TEVS/Thrombin/murine IgG2a Fc tag
T2 chain: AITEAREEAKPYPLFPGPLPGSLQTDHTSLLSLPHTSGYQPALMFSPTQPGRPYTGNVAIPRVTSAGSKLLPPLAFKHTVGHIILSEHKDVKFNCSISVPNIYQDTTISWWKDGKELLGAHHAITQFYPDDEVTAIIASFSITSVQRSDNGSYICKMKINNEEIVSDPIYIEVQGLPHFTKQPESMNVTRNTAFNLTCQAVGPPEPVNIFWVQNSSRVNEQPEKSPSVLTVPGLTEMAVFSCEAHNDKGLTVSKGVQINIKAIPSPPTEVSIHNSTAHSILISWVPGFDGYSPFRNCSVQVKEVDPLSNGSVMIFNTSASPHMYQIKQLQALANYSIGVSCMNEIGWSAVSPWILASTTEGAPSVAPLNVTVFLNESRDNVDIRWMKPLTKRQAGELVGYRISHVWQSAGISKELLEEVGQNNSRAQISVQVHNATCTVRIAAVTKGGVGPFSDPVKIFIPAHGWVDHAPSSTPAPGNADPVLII
Nature of the assay: SPR, Carterra LSA. For orientation: In SPR one partner is held on a chip, and binding of the other changes the refractive index at the surface.

Assay [3] concerns the target T3, Recombinant human MerTK human Fc Chimera protein (R&D systems, Cat #391-MR-100) (human, UniProt Q12866 26-499, limits assumed).
T3 construct: Bought; also called recombinant human MerTK protein; MerTK-Fc
T3 sequence: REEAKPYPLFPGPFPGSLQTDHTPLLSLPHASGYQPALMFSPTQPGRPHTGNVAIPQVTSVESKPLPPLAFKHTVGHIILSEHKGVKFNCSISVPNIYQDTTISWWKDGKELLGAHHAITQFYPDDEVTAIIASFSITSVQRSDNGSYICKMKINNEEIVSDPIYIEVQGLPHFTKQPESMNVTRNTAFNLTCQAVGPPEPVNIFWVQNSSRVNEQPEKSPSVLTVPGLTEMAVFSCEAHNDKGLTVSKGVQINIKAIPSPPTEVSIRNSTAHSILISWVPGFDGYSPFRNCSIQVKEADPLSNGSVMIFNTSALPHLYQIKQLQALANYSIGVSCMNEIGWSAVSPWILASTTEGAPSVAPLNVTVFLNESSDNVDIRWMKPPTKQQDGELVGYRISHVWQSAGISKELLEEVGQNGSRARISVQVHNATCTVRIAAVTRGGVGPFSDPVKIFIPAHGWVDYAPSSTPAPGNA
In words: competition ELISA, His-ProS on captured MerTK-Fc. As for the experimental part:
Rabbit anti-human IgG polyclonal antibody (Jackson ImmunoResearch, Cat #309-005-008) was captured to a high-protein binding plate at 2 μg/ml 4° C. overnight. After washing with 0.05% Tween20 in PBS three times, 5% BSA in PBS was added for 1 hour. Recombinant human MerTK human Fc Chimera protein (R&D systems, Cat #391-MR-100) was added at 2 μg/ml for 1 hour and the plates were then washed. Anti-MerTK antibodies were titrated to final concentration range of between 66.6 nM to 4 pM and then 40 μl of serially diluted antibody and 40 μl of His tag-conjugated recombinant Gas6 protein (R&D systems, Cat #885-GSB-050) at 3 μg/ml or His tag-conjugated recombinant ProS protein (R&D systems, Cat #9489-PS-100) at 20 μg/ml. After a further incubation for 1 hour, plates were washed and incubated for 1 hour with HRP-conjugated anti-6×His tag antibody (Abcam, Cat #ab1187). Plates were then washed and an HRP substrate (TMB) was used to develop the plates. After sufficient color change was observed, the reaction was stopped by adding 50 μl 2N H₂SO₄ and the OD was measured using a spectrophotometer (BioTek).
From these experiments, IC50 values [nM] were determined using OD450 values obtained from the dose-response curves analyzed with Prism software. Table 14 and Table 15 show IC50 values determined for anti-MerTK antibody blocking of Gas6 ligand binding and ProS ligand binding to MerTK. […] Dashes indicate lack of significant blocking; “n.a.” indicates data not available.
In general terms: In an ELISA, binding on a coated surface is turned into a signal by an enzyme label.

B1: MTK-09 (antibody, human IgG1, V domains shown)
VH: QVQLQQSGAELVRPGASVKISCKAFGYTFTNHHIKWVKQRPGQGLDWIGYIDPYNDYTTYNQNFKGKATLTVDKSSSTAYMELSSLTSEDSAVYYCARRAYDGYYVDWYFDVWGAGTTVTVSS
VL: DIVMTQSHKFMSTSVGDRVSITCKASQDVTTSVAWYHQKPGQSPELLIYSASYRYTGVPDRFTGSGSGTDFTFTISSVQAEDLAIYYCQQHYSTPLTFGSGTKLQLK
On to B1, for which the “Gas6-mediated pAKT activity, average IC50, human M2c macrophages” value in assay [1] amounted to 1.67 nM. Besides, the binding result in assay [2] is “binds”. Further, the half-inhibitory concentration (IC50) in assay [3] came to 7.84 nM.
